Source: publication PMC4847171, “Structural model of FeoB, the iron transporter from Pseudomonas aeruginosa, predicts a cysteine lined, GTP-gated pore” (Bioscience Reports, 2016)
Values joined by “and” are separate entries in the source; they are usually repeats but may differ in a detail not shown here. Equal values may be shown once.

Columns and labels:
[1] = molecular target: FeoB from Pseudomonas aeruginosa, histidine-tagged (Pseudomonas aeruginosa); test: native gel or EMSA; blue-native PAGE (NativePAGE Novex Bis-Tris 4%-12% gel, Coomassie blue G-250, 140 V for 2 h); purified FeoB solubilised with the polymer NV10
[2] = molecular target: FeoB from Pseudomonas aeruginosa, histidine-tagged (Pseudomonas aeruginosa); test: AFM; AFM imaging in air of isolated FeoB diluted 10000-20000 times in 10 mM K-HEPES pH 7.0, 200 mM NaCl, 10 mM MgSO4, 0.05% C12E8, adsorbed on mica and dried; oligomeric state from molecular volumes
[3] = molecular target: the molecule itself; test: native gel or EMSA; blue-native PAGE, same gel as FeoB; comparison proteins MexB and BSA

Molecule | stoichiometry N [1] | stoichiometry N [2] | stoichiometry N [3]
FeoB from Pseudomonas aeruginosa, histidine-tagged (natural protein) | 3 and 6 | 3 and 6 | –
MexB, drug efflux transporter from Pseudomonas aeruginosa (natural protein) MSKFFIDRPIFAWVIALVIMLAGGLSILSLPVNQYPAIAPPAIAVQVSYPGASAETVQDTVVQVIEQQMNGIDNLRYISSESNSDGSMTITVTFEQGTDPDIAQVQVQNKLQLATPLLPQEVQRQGIRVTKAVKNFLMVVGVVSTDGSMTKEDLSNYIVSNIQDPLSRTKGVGDFQVFGSQYSMRIWLDPAKLNSYQLTPGDVSSAIQAQNVQISSGQLGGLPAVKGQQLNATIIGKTRLQTAEQFENILLKVNPDGSQVRLKDVADVGLGGQDYSINAQFNGSPASGIAIKLATGANALDTAKAIRQTIANLEPFMPQGMKVVYPYDTTPVVSASIHEVVKTLGEAILLVFLVMYLFLQNFRATLIPTIAVPVVLLGTFGVLAAFGFSINTLTMFGMVLAIGLLVDDAIVVVENVERVMAEEGLSPREAARKSMGQIQGALVGIAMVLSAVFLPMAFFGGSTGVIYRQFSITIVSAMALSVIVALILTPALCATMLKPIEKGDHGEHKGGFFGWFNRMFLSTTHGYERGVASILKHRAPYLLIYVVIVAGMIWMFTRIPTAFLPDEDQGVLFAQVQTPPGSSAERTQVVVDSMREYLLEKESSSVSSVFTVTGFNFAGRGQSSGMAFIMLKPWEERPGGENSVFELAKRAQMHFFSFKDAMVFAFAPPSVLELGNATGFDLFLQDQAGVGHEVLLQARNKFLMLAAQNPALQRVRPNGMSDEPQYKLEIDDEKASALGVSLADINSTVSIAWGSSYVNDFIDRGRVKRVYLQGRPDARMNPDDLSKWYVRNDKGEMVPFNAFATGKWEYGSPKLERYNGVPAMEILGEPAPGLSSGDAMAAVEEIVKQLPKGVGYSWTGLSYEERLSGSQAPALYALSLLVVFLCLAALYESWSIPFSVMLVVPLGVIGALLATSMRGLSNDVFFQVGLLTTIGLSAKNAILIVEFAKELHEQGKGIVEAAIEACRMRLRPIVMTSLAFILGVVPLAISTGAGSGSQHAIGTGVIGGMVTATVLAIFWVPLFYVAVSTLFKDEASKQQASVEKGQ | – | – | 2 and 3
